# Patent US20230052369A1 (Zymeworks, published 2023)
# Molecular target: T1, purified human monomeric 4-1BB (human, UniProt Q07011 24-186)
# T1 construct: the assay used the 4-1BB part released by Factor Xa with the Fc removed; also called h4-1BB; human 4-1BB
# Assay: SPR, Ab captured, monomeric 4-1BB injected
# Method: The anti-human Fc surface was prepared on a CMS Series S sensorchip by standard amine coupling methods as described by the manufacturer (GE Healthcare). Briefly, immediately after EDC/NHS activation, a 25 μg/mL solution of anti-human Fc in 10 mM NaOAc pH 4.5 was injected at a flow rate of 10 μL/min for 420 s until approximately 2000 resonance units (RUs) were immobilized on all four flow cells. The remaining active groups were quenched by a 420 s injection of 1M ethanolamine at 10 μL/min.
# Antibodies for analysis were captured onto the anti-Fc surface by injecting 5 μg/mL solutions at a flow rate of 10 μL/min for 60 s. Using single-cycle kinetics, five concentrations of a two-fold dilution series of 4-1BB starting at 40 nM (for both supernatant and purified antibody runs) with a blank buffer control were sequentially injected at 40 μL/min for 180 s with a 600 s dissociation phase, resulting in a set of sensorgrams with a buffer blank reference. Experiments were performed at a constant temperature of 25° C. The anti-human Fc surfaces were regenerated to prepare for the next injection cycle by one pulse of 10 mM Glycine/HCl pH 1.5 for 120 s at 40 μL/min. Blank-subtracted sensorgrams were analyzed using Biacore™ T200 Evaluation Software v3.0. The blank-subtracted sensorgrams were then fit to the 1:1 Langmuir binding model.
# Protein material post protein-A or SEC was assessed for binding to human 4-1BB.
# T1 sequence (Q07011 other isoform, or with tags, fused parts or gaps limits assumed): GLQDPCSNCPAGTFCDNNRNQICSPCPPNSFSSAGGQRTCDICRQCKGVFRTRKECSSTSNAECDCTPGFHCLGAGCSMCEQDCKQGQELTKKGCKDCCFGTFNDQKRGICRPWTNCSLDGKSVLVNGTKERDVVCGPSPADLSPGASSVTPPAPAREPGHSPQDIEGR
row,Binder,binding result
1,"v28725 (antibody, human IgG1, kappa, L234A L235A, V domains shown, also called humanized 1C8 H7L2) VH: EVQLVESGGGLIQPGGSLRLSCAVSGFSLTTYAISWVRQAPGKGLEWLGIIWPGGGTNYADSVKGRFTISKDNSKNTLYLQMNSLRAEDTAVYYCARGAGTWYFDVWGQGTLVTVSS VL: DIQMTQSPSSLSASVGDRVTITCSASQGISNYLNWYQQKPGKAPKLLIYYTSSLHSGVPSRFSGSGSGTDYTLTISSLQPEDIATYYCQQYSKFPWTFGQGTKLEIKR",no binding
2,"v28717 (antibody, human IgG1, kappa, L234A L235A, V domains shown, FSA format, human IgG1/kappa; also called humanized 1C8 H5L1) VH: EVQLVESGGGLIQPGGSLRLSCAASGFSLTTYAISWVRQAPGKGLEWVSIIWPGGGTNYADSVKGRFTISRDNSKNTLYLQMNSLRAEDTAVYYCARGAGTWYFDVWGQGTLVTVSS VL: DIQMTQSPSSLSASVGDRVTITCSASQGISNYLNWYQQKPGKAPKLLIYYTSSLHSGVPSRFSGSGSGTDFTFTISSLQPEDIATYYCQQYSKFPWTFGQGTKVEIKR",no binding
3,"v28719 (antibody, human IgG1, kappa, L234A L235A, V domains shown, also called humanized 1C8 H5L2) VH: EVQLVESGGGLIQPGGSLRLSCAASGFSLTTYAISWVRQAPGKGLEWVSIIWPGGGTNYADSVKGRFTISRDNSKNTLYLQMNSLRAEDTAVYYCARGAGTWYFDVWGQGTLVTVSS VL: DIQMTQSPSSLSASVGDRVTITCSASQGISNYLNWYQQKPGKAPKLLIYYTSSLHSGVPSRFSGSGSGTDYTLTISSLQPEDIATYYCQQYSKFPWTFGQGTKLEIKR",no binding
4,"v28720 (antibody, human IgG1, kappa, L234A L235A, V domains shown, also called humanized 1C8 H5L3) VH: EVQLVESGGGLIQPGGSLRLSCAASGFSLTTYAISWVRQAPGKGLEWVSIIWPGGGTNYADSVKGRFTISRDNSKNTLYLQMNSLRAEDTAVYYCARGAGTWYFDVWGQGTLVTVSS VL: DIQMTQSPSSLSASVGDRVTITCSASQGISNYLNWYQQKPGKTVKLLIYYTSSLHSGVPSRFSGSGSGTDYTLTISSLQPEDIATYYCQQYSKFPWTFGQGTKLEIKR",no binding
5,"v28721 (antibody, human IgG1, kappa, L234A L235A, V domains shown, also called humanized 1C8 H6L1) VH: EVQLVESGGGLIQPGGSLRLSCAVSGFSLTTYAISWVRQAPGKGLEWLGIIWPGGGTNYADSVKGRFTISRDNSKNTLYLQMNSLRAEDTAVYYCARGAGTWYFDVWGQGTLVTVSS VL: DIQMTQSPSSLSASVGDRVTITCSASQGISNYLNWYQQKPGKAPKLLIYYTSSLHSGVPSRFSGSGSGTDFTFTISSLQPEDIATYYCQQYSKFPWTFGQGTKVEIKR",no binding
6,"v28722 (antibody, human IgG1, kappa, L234A L235A, V domains shown, also called humanized 1C8 H6L2) VH: EVQLVESGGGLIQPGGSLRLSCAVSGFSLTTYAISWVRQAPGKGLEWLGIIWPGGGTNYADSVKGRFTISRDNSKNTLYLQMNSLRAEDTAVYYCARGAGTWYFDVWGQGTLVTVSS VL: DIQMTQSPSSLSASVGDRVTITCSASQGISNYLNWYQQKPGKAPKLLIYYTSSLHSGVPSRFSGSGSGTDYTLTISSLQPEDIATYYCQQYSKFPWTFGQGTKLEIKR",no binding
7,"v28723 (antibody, human IgG1, kappa, L234A L235A, V domains shown, also called humanized 1C8 H6L3) VH: EVQLVESGGGLIQPGGSLRLSCAVSGFSLTTYAISWVRQAPGKGLEWLGIIWPGGGTNYADSVKGRFTISRDNSKNTLYLQMNSLRAEDTAVYYCARGAGTWYFDVWGQGTLVTVSS VL: DIQMTQSPSSLSASVGDRVTITCSASQGISNYLNWYQQKPGKTVKLLIYYTSSLHSGVPSRFSGSGSGTDYTLTISSLQPEDIATYYCQQYSKFPWTFGQGTKLEIKR",no binding
8,"v28724 (antibody, human IgG1, kappa, L234A L235A, V domains shown, also called humanized 1C8 H7L1) VH: EVQLVESGGGLIQPGGSLRLSCAVSGFSLTTYAISWVRQAPGKGLEWLGIIWPGGGTNYADSVKGRFTISKDNSKNTLYLQMNSLRAEDTAVYYCARGAGTWYFDVWGQGTLVTVSS VL: DIQMTQSPSSLSASVGDRVTITCSASQGISNYLNWYQQKPGKAPKLLIYYTSSLHSGVPSRFSGSGSGTDFTFTISSLQPEDIATYYCQQYSKFPWTFGQGTKVEIKR",no binding
